B1: HYBN-YB: hypoxia-inducible promoter, SEQ ID NO: 140; 6 HRE3 elements spaced by 5 bp spacers, YB-TATA (nucleic acid)
DNA: AATAAAATATCTTTATTTTCATTACATCTGTGTGTTGGTTTTTTGTGTGACCTTGAGTACGTGCGTCTCTGCACGTATGGATAAACCTTGAGTACGTGCGTCTCTGCACGTATGTGCGTACCTTGAGTACGTGCGTCTCTGCACGTATGGATAAACCTTGAGTACGTGCGTCTCTGCACGTATGTGCGTACCTTGAGTACGTGCGTCTCTGCACGTATGGATAAACCTTGAGTACGTGCGTCTCTGCACGTATGTCTAGAGGGTATATAATGGGGGCCA
modifications: Synp-HYPN
notes: 6 HRE3 elements spaced by 5 bp spacers, YB-TATA
B2: HYBN-minTk: hypoxia-inducible promoter, SEQ ID NO: 143; 6 HRE3 elements, MinTK (nucleic acid)
DNA: AATAAAATATCTTTATTTTCATTACATCTGTGTGTTGGTTTTTTGTGTGACCTTGAGTACGTGCGTCTCTGCACGTATGGATAAACCTTGAGTACGTGCGTCTCTGCACGTATGTGCGTACCTTGAGTACGTGCGTCTCTGCACGTATGGATAAACCTTGAGTACGTGCGTCTCTGCACGTATGTGCGTACCTTGAGTACGTGCGTCTCTGCACGTATGGATAAACCTTGAGTACGTGCGTCTCTGCACGTATGTTCGCATATTAAGGTGACGCGTGTGGCCTCGAACACCGAGCGACCCTGCAGCGACCCGCTTAA
modifications: Synp-HYBNMinTK
notes: 6 HRE3 elements, MinTK
B3: HYBN-MLP: hypoxia-inducible promoter, SEQ ID NO: 144; 6 HRE3 elements, MLP (nucleic acid)
DNA: AATAAAATATCTTTATTTTCATTACATCTGTGTGTTGGTTTTTTGTGTGACCTTGAGTACGTGCGTCTCTGCACGTATGGATAAACCTTGAGTACGTGCGTCTCTGCACGTATGTGCGTACCTTGAGTACGTGCGTCTCTGCACGTATGGATAAACCTTGAGTACGTGCGTCTCTGCACGTATGTGCGTACCTTGAGTACGTGCGTCTCTGCACGTATGGATAAACCTTGAGTACGTGCGTCTCTGCACGTATGGGGGGGCTATAAAAGGGGGTGGGGGCGTTCGTCCTCACTCT
modifications: Synp- HYBNMLP
notes: 6 HRE3 elements, MLP
B4: HYBN-pJB42: hypoxia-inducible promoter, SEQ ID NO: 146; 6 HRE3 elements, pJB42 (nucleic acid)
DNA: AATAAAATATCTTTATTTTCATTACATCTGTGTGTTGGTTTTTTGTGTGACCTTGAGTACGTGCGTCTCTGCACGTATGGATAAACCTTGAGTACGTGCGTCTCTGCACGTATGTGCGTACCTTGAGTACGTGCGTCTCTGCACGTATGGATAAACCTTGAGTACGTGCGTCTCTGCACGTATGTGCGTACCTTGAGTACGTGCGTCTCTGCACGTATGGATAAACCTTGAGTACGTGCGTCTCTGCACGTATGCTGACAAATTCAGTATAAAAGCTTGGGGCTGGGGCCGAGCACTGGGGACTTTGAGGGTGGCCAGGCCAGCGTAGGAGGCCAGCGTAGGATCCTGCTGGGAGCGGGGAACTGAGGGAAGCGACGCCGAGAAAGCAGGCGTACCACGGAGGGAGAGAAAAGCTCCGGAAGCCCAGCAGCG
modifications: Synp-HYBNpJB42
notes: 6 HRE3 elements, pJB42
B5: HYBN-TATAm6a: hypoxia-inducible promoter, SEQ ID NO: 147; 6 HRE3 elements, TATAm6a (nucleic acid)
DNA: AATAAAATATCTTTATTTTCATTACATCTGTGTGTTGGTTTTTTGTGTGACCTTGAGTACGTGCGTCTCTGCACGTATGGATAAACCTTGAGTACGTGCGTCTCTGCACGTATGTGCGTACCTTGAGTACGTGCGTCTCTGCACGTATGGATAAACCTTGAGTACGTGCGTCTCTGCACGTATGTGCGTACCTTGAGTACGTGCGTCTCTGCACGTATGGATAAACCTTGAGTACGTGCGTCTCTGCACGTATGTATAAAAGGCAGAGCTCGTTTAGTGAACCGAAGCTTGGACTAAAGCGGACTTGTCTCGAG
modifications: Synp-HYBNTATAm6a
notes: 6 HRE3 elements, TATAm6a
B6: HYBN-C: hypoxia-inducible promoter, SEQ ID NO: 141; 6 HRE3 elements, CMV-MP short (nucleic acid)
DNA: AATAAAATATCTTTATTTTCATTACATCTGTGTGTTGGTTTTTTGTGTGACCTTGAGTACGTGCGTCTCTGCACGTATGGATAAACCTTGAGTACGTGCGTCTCTGCACGTATGTGCGTACCTTGAGTACGTGCGTCTCTGCACGTATGGATAAACCTTGAGTACGTGCGTCTCTGCACGTATGTGCGTACCTTGAGTACGTGCGTCTCTGCACGTATGGATAAACCTTGAGTACGTGCGTCTCTGCACGTATGGCGATTAATCCATATGCGTAGGCGTGTACGGTGGGAGGTCTATATAAGCAGAGCT
modifications: Synp-HYBNC
notes: 6 HRE3 elements, CMV-MP short
B7: HYBN-SV: hypoxia-inducible promoter, SEQ ID NO: 145; 6 HRE3 elements, SV40 (nucleic acid)
DNA: AATAAAATATCTTTATTTTCATTACATCTGTGTGTTGGTTTTTTGTGTGACCTTGAGTACGTGCGTCTCTGCACGTATGGATAAACCTTGAGTACGTGCGTCTCTGCACGTATGTGCGTACCTTGAGTACGTGCGTCTCTGCACGTATGGATAAACCTTGAGTACGTGCGTCTCTGCACGTATGTGCGTACCTTGAGTACGTGCGTCTCTGCACGTATGGATAAACCTTGAGTACGTGCGTCTCTGCACGTATGTGCATCTCAATTAGTCAGCAACCATAGTCCCGCCCCTAACTCCGCCCATCCCGCCCCTAACTCCGCCCAGTTCCGCCCATTCTCCGCCCCATCGCTGACTAATTTTTTTTATTTATGCAGAGGCCGAGGCCGCCTCGGCCTCTGAGCTATTCCAGAAGTAGTGAGGAGGCTTTTTTGGAGGCCTAGGCTTTTGCAAAAAGCTT
modifications: Synp-HYBNSV
notes: 6 HRE3 elements, SV40
B8: HYBN-C53: hypoxia-inducible promoter, SEQ ID NO: 142; 6 HRE3 elements, CMV53 (nucleic acid)
DNA: AATAAAATATCTTTATTTTCATTACATCTGTGTGTTGGTTTTTTGTGTGACCTTGAGTACGTGCGTCTCTGCACGTATGGATAAACCTTGAGTACGTGCGTCTCTGCACGTATGTGCGTACCTTGAGTACGTGCGTCTCTGCACGTATGGATAAACCTTGAGTACGTGCGTCTCTGCACGTATGTGCGTACCTTGAGTACGTGCGTCTCTGCACGTATGGATAAACCTTGAGTACGTGCGTCTCTGCACGTATGCAACAAAATGTCGTAACAAGGGCGGTAGGCGTGTACGGTGGGAGGTCTATATAAGCAGAGCTCGTTTAGTGAACCG
modifications: Synp-HYBNC53
notes: 6 HRE3 elements, CMV53

These molecules were tested on HEK293 cells (assay: Luciferase expression from new HRE3 hypoxia-inducible promoter designs, normoxia vs 24 h hypoxia). Conditions: HEK293, N=3.
Assay type: cell-based, human
Text: Promoters were designed using HRE3 (SEQ ID NO: 9) described above. The promoters were designed around a base enhancer element: • […]gataa[…] GTATGtgcgt[…]gataaACCTTGAGTACGTGCGT CTCTGCACGTATGtgcgt[…]gataaACCTTGAGT […] (SEQ ID NO: 139) • HRE3 is in capital letters
This enhancer was operably linked with the following minimal promoters, with a 5 bp spacer between the enhancer and the minimal promoter: • YB-Tata (HYPN) • Short CMV (HYBNC) • CMV53 (HYBNC53) • MinTK (HYBNMinTK) • 30 MLP (HYBNMLP) • SV40 (HYBNSV) • pJB42 (HYBNpJB42)
This enhancer was also operably liked with another minimal promoter named TATA-m6A (HYBNTATAm6a): • […]aagcttggactaaagcggacttgtctcgag (SEQ ID NO: 101)
These new designs were transfected in HEK293 cells as described above and the results of their expression in hypoxia and normoxia are shown in FIG. 15.
B1 was tested, and the “Luciferase activity in normoxia” value was “almost no luciferase activity” and the “Luciferase expression after 24 hours in hypoxia (vs normoxia)” value (“Luciferase expression … (vs normoxia)” for short) was “induced”. In the case of B2, the “Luciferase activity in normoxia” value is reported as “almost no luciferase activity” and the “Luciferase expression … (vs normoxia)” value is reported as “induced”. With B3 the “Luciferase activity in normoxia” value was “almost no luciferase activity” and the “Luciferase expression … (vs normoxia)” value was “induced”. In the case of B4, the “Luciferase activity in normoxia” value is reported as “almost no luciferase activity” and the “Luciferase expression … (vs normoxia)” value is reported as “induced”. In the case of B5, the “Luciferase activity in normoxia” value is reported as “almost no luciferase activity” and the “Luciferase expression … (vs normoxia)” value is reported as “induced”. With B6 the “Luciferase activity in normoxia” value was “almost no luciferase activity” and the “Luciferase expression … (vs normoxia)” value was “induced”. For B7, the “Luciferase activity in normoxia” value was “almost no luciferase activity” and the “Luciferase expression … (vs normoxia)” value was “induced”. With B8 the “Luciferase activity in normoxia” value was “almost no luciferase activity” and the “Luciferase expression … (vs normoxia)” value was “induced”.

— patent US20230374526A1, “FORSKOLIN-INDUCIBLE PROMOTERS AND HYPOXIA-INDUCIBLE PROMOTERS” (ASKLEPIOS BIOPHARMACEUTICAL, INC., priority 2020, published 2023)
